Test [1] deals with binding immunoglobulin protein (TvBip). The test can be described thus: co-immunoprecipitation with anti-HA antibody, Western blotting. The settings on record: three experiments. (In general: In western blotting, separated proteins are transferred to a membrane and probed.)
In test [2] the target is heat shock protein 72 (TvHSP72). The test is described as above. The settings on record: three experiments.
The target in test [3] is hydrogenosomal heat shock protein 70 (HdHSP70). The test is described as above. The settings on record: total lysate, three experiments.
A further test addresses Myb3 (endogenous). The description is as above. Conditions: for ratio to parent: three experiments.
Test [4] has as its target His-TvCyP2 (Trichomonas vaginalis) (UniProt A2DLL4). The test can be described thus: ITC. (ITC needs no label: the signal is the heat of the interaction.)
Another test addresses TvMyb3IPhmw. The test can be described thus: co-immunoprecipitation with anti-HA antibody, Western blotting. The settings on record: P100 fraction; three experiments.

Usually Kd stands for the free concentration of one partner at which half of the binding sites on the other are occupied at equilibrium, for simple one-to-one binding. Read a low Kd as higher affinity.

For the substance HA-TvCyP1 (from UniProt A2DT06) R63A, the ratio to parent in test [1] (total lysate) was determined as 1; in test [2] (total lysate, ** p < 0.01), 0.5; in test [3] (** p < 0.01), 0.1; with Myb3 (endogenous) (total lysate, ** p < 0.01), 0.6.
On to His-Myb3^53–180 (domain or fragment), for which the Kd in test [4] stood at 55 µM.
Take HA-TvCyP2 (from UniProt A2DLL4) R75A: the ratio to parent with TvMyb3IPhmw amounted to 1; in test [1] (P15 fraction), 1; in test [1] (P100 fraction), 1; in test [1] (total lysate, ** p < 0.01), 0; in test [2] (P100 fraction, * p < 0.05), 0.7; in test [2] (S100 fraction, ** p < 0.01), 0.6. The ratio to parent amounted to 1.6 in test [2] (total lysate, ** p < 0.01); 0.9 in test [3]; 0.7 with Myb3 (endogenous) (P15 fraction, * p < 0.05); 0.5 in the test with Myb3 (endogenous) (P100 fraction, ** p < 0.01); 0.4 with Myb3 (endogenous) (total lysate, ** p < 0.01). The same substance registered an other: relative signal intensity with Myb3 (endogenous) of 0.1.

Values taken from publication PMC6985235.
